B1: 306VQIVYK311 hexapeptide (peptide)
peptide: Ac-VQIVYK-NH2
notes: also called amyloid motif; source: synthetic peptide (Genscript)
B2: R2R3-N296Δ peptide fragment (peptide, UniProt P10636-8 295-311, looked up)
peptide: Ac-DIKHVPGGGSVQIVYK-NH2
notes: source: synthetic peptide (Genscript)
B3: R2R3-P301L peptide fragment (peptide, UniProt P10636-8 295-311, looked up)
peptide: Ac-DNIKHVLGGGSVQIVYK-NH2
notes: as for B2
B4: R2R3-S305N peptide fragment (peptide, UniProt P10636-8 295-311, looked up)
peptide: Ac-DNIKHVPGGGNVQIVYK-NH2
notes: as for B2
B5: R2R3-G303V peptide fragment (peptide, UniProt P10636-8 295-311, looked up)
peptide: Ac-DNIKHVPGVGSVQIVYK-NH2
notes: as for B2
B6: R2R3-V300I peptide fragment (peptide, UniProt P10636-8 295-311, looked up)
peptide: Ac-DNIKHIPGGGSVQIVYK-NH2
notes: as for B2
B7: R2R3-P301S peptide fragment (peptide, UniProt P10636-8 295-311, looked up)
peptide: Ac-DNIKHVSGGGSVQIVYK-NH2
notes: as for B2

Molecular target: the molecule itself
Assay: ThT fluorescence aggregation assay; spontaneous self-assembly of disaggregated synthetic peptides, 200 µM, PBS, 25 µM ThT, room temperature, no inducer; the R2R3 peptides of Fig. 4 also looked at by TEM
B1: binds. B2: binds. B3: binds. B4: binds. B5: binds. B6: binds. B7: binds.
